In paper PMC9333443, “Structural insights into Pot1-ssDNA, Pot1-Tpz1 and Tpz1-Ccq1 Interactions within fission yeast shelterin complex” (PLoS Genetics, 2022):
Values belong to the binder of their own block, whether it stands above or below them.

Assays:
[1] = target: T1, Pot1DBD (Schizosaccharomyces pombe, UniProt O13988 2-339); test: ITC; Kd only in figure; ITC: 25 mM Tris-HCl pH 8.0, 150 mM NaCl, 20 C; gel filtration (complex purification): 25 mM Tris-HCl pH 8.0, 150 mM NaCl, 5 mM DTT; conditions: protein: recombinant; tags: His6-SUMO (N-terminal, removed with ULP1); single strand
T1 sequence: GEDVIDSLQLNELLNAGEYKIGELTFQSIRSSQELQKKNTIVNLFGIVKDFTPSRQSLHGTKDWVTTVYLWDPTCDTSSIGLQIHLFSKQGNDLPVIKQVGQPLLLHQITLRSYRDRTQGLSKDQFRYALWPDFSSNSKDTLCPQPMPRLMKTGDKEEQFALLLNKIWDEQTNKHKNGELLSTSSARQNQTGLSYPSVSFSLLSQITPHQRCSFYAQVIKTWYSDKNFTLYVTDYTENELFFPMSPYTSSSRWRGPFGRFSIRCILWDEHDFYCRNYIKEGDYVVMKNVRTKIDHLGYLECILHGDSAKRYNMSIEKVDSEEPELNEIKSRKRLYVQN

[2] = target: T2, Pot1 full length;Tpz1PIM (Schizosaccharomyces …, UniProt O13988;O14246 1-555;164-240, |); test: complex reconstitution; stable complex after mixing with Tel18; ITC: 25 mM Tris-HCl pH 8.0, 150 mM NaCl, 20 C; gel filtration (complex purification): 25 mM Tris-HCl pH 8.0, 150 mM NaCl, 5 mM DTT; conditions: protein: recombinant;recombinant, tags: His6-SUMO/GST system, co-expressed with Tpz1PIM;His6-SUMO/GST system, copies: 1;1, single strand
T2 sequence 1: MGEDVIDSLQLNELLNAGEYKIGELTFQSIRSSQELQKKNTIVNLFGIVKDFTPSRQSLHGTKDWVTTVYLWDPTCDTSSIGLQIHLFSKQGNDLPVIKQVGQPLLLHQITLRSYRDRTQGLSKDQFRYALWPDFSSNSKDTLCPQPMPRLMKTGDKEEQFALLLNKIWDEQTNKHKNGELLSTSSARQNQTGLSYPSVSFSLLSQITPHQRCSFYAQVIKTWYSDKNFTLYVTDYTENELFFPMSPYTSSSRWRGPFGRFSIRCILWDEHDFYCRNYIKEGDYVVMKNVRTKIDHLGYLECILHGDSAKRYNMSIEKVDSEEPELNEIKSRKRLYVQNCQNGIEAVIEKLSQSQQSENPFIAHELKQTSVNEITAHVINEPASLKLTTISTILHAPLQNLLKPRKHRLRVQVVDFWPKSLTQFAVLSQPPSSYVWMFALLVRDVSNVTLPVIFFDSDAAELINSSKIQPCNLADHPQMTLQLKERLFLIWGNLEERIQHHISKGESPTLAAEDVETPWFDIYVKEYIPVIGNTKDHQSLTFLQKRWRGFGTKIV
T2 sequence 2: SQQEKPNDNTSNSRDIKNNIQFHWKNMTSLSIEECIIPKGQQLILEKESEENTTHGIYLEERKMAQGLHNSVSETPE

[3] = target: T3, Ccq1 (residues 123-439), without the deletion (S. pombe, UniProt Q10432 123-439); test: SEC; co-expressed and co-purified complexes on gel filtration (calibrated for Tpz1CBM-Ccq1TAD); 25 mM Tris-HCl pH 8.0, 150 mM NaCl, 5 mM dithiothreitol; conditions: both partners purified
T3 construct: The methods describe only the deleted form; this undeleted form gave crystals that diffracted to about 4.0 Å; also called N-terminal region of Ccq1
T3 sequence (looked up): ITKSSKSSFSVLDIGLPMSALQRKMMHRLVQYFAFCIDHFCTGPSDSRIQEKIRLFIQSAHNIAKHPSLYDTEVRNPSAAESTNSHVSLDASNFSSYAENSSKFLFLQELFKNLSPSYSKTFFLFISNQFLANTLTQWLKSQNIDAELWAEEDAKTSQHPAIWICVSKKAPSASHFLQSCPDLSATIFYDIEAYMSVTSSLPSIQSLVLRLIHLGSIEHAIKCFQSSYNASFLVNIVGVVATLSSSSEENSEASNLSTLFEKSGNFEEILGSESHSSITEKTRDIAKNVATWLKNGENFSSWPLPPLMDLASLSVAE

[4] = target: T4, Ccq1TAD (Ccq1 123-439 with deletion of residues 199-215), purified (S. pombe, UniProt Q10432 123-439, deletion of residues 199–215); test: crystal structure; Tpz1CBM-Ccq1TAD complex, SAD, 2.4 Å; sitting drop at 4°C, 15% PEG4000, 200 mM potassium chloride, 50 mM magnesium chloride, 50 mM Tris-HCl pH 7.8; conditions: both partners purified
T4 construct: Two copies stand in the 2:2 complex with Tpz1CBM; not shown: His6, N-terminal, cleaved; SUMO, N-terminal, cleaved
T4 sequence (looked up): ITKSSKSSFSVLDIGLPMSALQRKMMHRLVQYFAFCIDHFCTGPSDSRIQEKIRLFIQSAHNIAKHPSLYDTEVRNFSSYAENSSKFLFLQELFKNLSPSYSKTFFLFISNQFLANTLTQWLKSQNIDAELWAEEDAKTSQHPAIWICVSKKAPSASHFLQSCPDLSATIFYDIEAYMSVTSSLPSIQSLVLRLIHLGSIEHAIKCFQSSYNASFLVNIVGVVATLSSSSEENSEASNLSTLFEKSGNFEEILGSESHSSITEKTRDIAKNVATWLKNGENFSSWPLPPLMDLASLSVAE

[5] = target: T1, Pot1DBD; test: gel filtration; 1:1 stoichiometry; ITC: 25 mM Tris-HCl pH 8.0, 150 mM NaCl, 20 C; gel filtration (complex purification): 25 mM Tris-HCl pH 8.0, 150 mM NaCl, 5 mM DTT; conditions: protein: recombinant; tags: His6-SUMO (N-terminal, removed with ULP1); single strand

Binder: GGTTACAGGGGTTACGGT (ssDNA) [Tel18]
binding result [1]: binds
binding result [2]: binds

Binder: GGTTACGGTTACGGT (ssDNA) [Tel15]
binding result [1]: binds

binding result [3]: binds
stoichiometry N [4]: 1 Tpz1CBM per Ccq1TAD (printed as 2:2)
Binder: EQIELEYKRKPIPDYDFMKGLETTLQELYVEHQSKKRRLELFQLTN (domain or fragment, S. pombe, UniProt O14246 425-470, looked up, not shown: GST, N-terminal, cleaved) [Tpz1CBM (Tpz1 425-470), purified]

Binder: GGTTACAGGGTTACGGT (ssDNA) [Tel17]
binding result [5]: binds
